The target of experiment [1] is T1, human FGF23 (human, UniProt Q9GZV9 25-251).
T1 construct: also called recombinant human FGF-23; Fibroblast Growth Factor 23
T1 sequence: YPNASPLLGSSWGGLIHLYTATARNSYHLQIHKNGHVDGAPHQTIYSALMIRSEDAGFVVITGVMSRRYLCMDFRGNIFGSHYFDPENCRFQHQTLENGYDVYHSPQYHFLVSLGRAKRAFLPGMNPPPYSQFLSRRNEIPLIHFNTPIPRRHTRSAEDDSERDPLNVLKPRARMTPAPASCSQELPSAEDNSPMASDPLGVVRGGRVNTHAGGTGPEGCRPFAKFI
As to the kind of experiment: ELISA, binding to human FGF23 (A450 against log mAb concentration). In general terms: An ELISA detects its analyte on a solid surface through an enzyme-linked reagent.

Experiment [2] deals with T1, human FGF23. As to the kind of experiment: cell-based or functional assay.
Experiment [3] deals with T1, human FGF23. As to the kind of experiment: ELISA, binding to human FGF23 (A450 against log mAb concentration). This is another data set of the same source.
For experiment [4], the target named is T1, human FGF23. As to the kind of experiment: cell-based or functional assay. This is another data set of the same source.

Consider 13 molecules from patent US20220185876A1 (ATARGA, published 2022).

Read-outs that look alike come from different tables or passages of the source.

B1: Exc23 (antibody, V domains shown)
VH: EVQLVQSGAEVRKPGASVKVSCKASGYTFTNHYMHWVRQAPGQGLEWMGIINPISGSTSNAQKLQGRVTFTRDTSANTAYMELSGLIPEDTAIYYCARDIVDAFDFWGQGTLVTVSS
VL: DIQMTQSPSSLSASVGDRVTITCKASQGISSALVWYQQKPGKAPKLLIYDASSLQTGVPSRFSGSGSGTDFTFTISSLQPEDIATYYCQQFNDYFSFGPGTKLEIK
notes: Monoclonal anti-FGF23 antibody
B1 gave an EC50 with human FGF23 [1] of 0.0295 µg/mL.

B2: ExC17 (antibody, V domains shown)
VH: EVQLVQSGAEVRKPGASVKVSCKASGYTFTNHYMHWVRQAPGQGLEWMGIINPISGSTSNAQKLQGRVTFTRDTSANTAYMELSGLIPEDTAIYYCARDIVDAFDFWGQGTLVTVSS
VL: DIQLTQSPSSLSASVGDRVTITCRASQGISSALVWYQQKPGQAPRLLIYDASSLQSGIPARFSGSGSGTDFTLTISSLEPEDFAVYYCQQFNDLFTFGQGTKLEIK
notes: as for B1
For the molecule B2, the “IC50, neutralisation of recombinant human FGF23-stimulated proliferation of NIH-3T3 cells (fluorescence)” value (“IC50, neutralisation” below) in the experiment with human FGF23 [2] was found to be 0.2 µg/mL. The EC50 with human FGF23 [3] came out at 0.0181 µg/mL.

B3: ExA43 (antibody, V domains shown)
VH: EVQLVQSGAEVRKPGASVKVSCKASGYTFTNHYMHWVRQAPGQGLEWMGIINPISGSTSNAQKLQGRVTFTRDTSANTAYMELSGLIPEDTAIYYCAREIVDAFDFWGQGTLVTVSS
VL: AIQLTQSPSSLSASVGDRVTITCRASQGISSALVWYQQKPGQAPRLLIYDASSLESGIPARFSGSGSGTDFTLTISSLEPEDFAVYYCQQFNDYFTFGQGTKLEIK
notes: as for B1
The molecule B3 returned an EC50 in the experiment with human FGF23 [3] of 0.0278 µg/mL.

B4: ExA28 (antibody, V domains shown)
VH: EVQLVQSGAEVRKPGASVKVSCKASGYTFTNHYMHWVRQAPGQGLEWMGIINPISGSTSNAQKLQGRVTFTRDTSANTAYMELSGLIPEDTAIYYCARDIVDAFDFWGQGTLVTVSS
VL: AIQMTQSPSSLSASVGDRVTITCRASQGISSALVWYQQKPGKAPKLLIYDASSLESGVPSRFSGSGSGTDFTFTISSLQPEDIATYYCQQFNDYFTFGPGTKLEIK
notes: as for B1
Consider B4, for which the “IC50, neutralisation” value in the experiment with human FGF23 [2] came out at 0.316 µg/mL. In addition, in the experiment with human FGF23 [3], a half-maximal response (EC50) required 0.0248 µg/mL.

B5: Exc23.4 (antibody, V domains shown)
VH: EVQLVQSGAEVRKPGASVKVSCKASGYTFTNHYMHWVRQAPGQGLEWMGIINPISGSTSNAQKLQGRVTFTRDTSANTAYMELSGLIPEDTAIYYCARDIVDAFDFWGQGTLVTVSS
VL: DIQMTQSPSSLSASVGDRVTITCRASQGISSALVWYQQKPGKAPKLLIYDASSLQTGVPSRFSGSGSGTDFTFTISSLQPEDIATYYCQQFNDYFSFGPGTKLEIK
notes: as for B1
Molecule B5 yielded an EC50 in the experiment with human FGF23 [1] of 0.0266 µg/mL.

B6: Exc23.5 (antibody, V domains shown)
VH: EVQLVQSGAEVRKPGASVKVSCKASGYTFTNHYMHWVRQAPGQGLEWMGIINPISGSTSNAQKLQGRVTFTRDTSANTAYMELSGLIPEDTAIYYCARDIVDAFDFWGQGTLVTVSS
VL: AIQMTQSPSSLSASVGDRVTITCKASQGISSALVWYQQKPGKAPKLLIYDASSLQTGVPSRFSGSGSGTDFTFTISSLQPEDIATYYCQQFNDYFSFGPGTKLEIK
notes: as for B1
On to B6, for which the EC50 in the experiment with human FGF23 [1] is 0.0273 µg/mL. This EC50 and that of the molecule before are within 1.5-fold of each other.

B7: Exc23.2 (antibody, V domains shown)
VH: EVQLVQSGAEVRKPGASVKVSCKASGYTFTNHYMHWVRQAPGQGLEWMGIINPISGSTSNAQKLQGRVTFTRDTSANTAYMELSGLIPEDTAIYYCARDIVDAFDFWGQGTLVTVSS
VL: DIQMTQSPSSLSASVGDRVTITCKASQGISSALVWYQQKPGKAPKLLIYDASSLQSGVPSRFSGSGSGTDFTFTISSLQPEDIATYYCQQFNDYFSFGPGTKLEIK
notes: as for B1
For the molecule B7, the EC50 with human FGF23 [1] was found to be 0.0262 µg/mL.

B8: Exc23.3 (antibody, V domains shown)
VH: EVQLVQSGAEVRKPGASVKVSCKASGYTFTNHYMHWVRQAPGQGLEWMGIINPISGSTSNAQKLQGRVTFTRDTSANTAYMELSGLIPEDTAIYYCARDIVDAFDFWGQGTLVTVSS
VL: DIQMTQSPSSLSASVGDRVTITCKASQGISSALVWYQQKPGKAPKLLIYDASSLQTGVPSRFSGSGSGTDFTFTISSLQPEDIATYYCQQFNDYFTFGPGTKLEIK
notes: as for B1
In the case of B8, in the experiment with human FGF23 [4], the “IC50, neutralisation” value turned out to be 1.29 µg/mL. Also, the EC50 with human FGF23 [1] stood at 0.0286 µg/mL.

B9: Exc23.1 (antibody, V domains shown)
VH: EVQLVQSGAEVRKPGASVKVSCKASGYTFTNHYMHWVRQAPGQGLEWMGIINPISGSTSNAQKLQGRVTFTRDTSANTAYMELSGLIPEDTAIYYCARDIVDAFDFWGQGTLVTVSS
VL: DIQMTQSPSSLSASVGDRVTITCKASQGISSALVWYQQKPGKAPKLLIYDASSLETGVPSRFSGSGSGTDFTFTISSLQPEDIATYYCQQFNDYFSFGPGTKLEIK
notes: as for B1
In the case of B9, the “IC50, neutralisation” value with human FGF23 [4] stood at 1.63 µg/mL. This molecule also gave an EC50 in the experiment with human FGF23 [1] of 0.0332 µg/mL.

B10: ExA60 (antibody, V domains shown)
VH: EVQLVQSGAEVRKPGASVKVSCKASGYSFTNHYMHWVRQAPGQGLEWMGIINPNSGSTSNAQKLQGRVTFTRDTSANTAYMELSGLIPEDTAIYYCARDIVDAFDYWGQGTLVTVSS
VL: AIQMTQSPSSLSASVGDRVTITCRASQGISSALVWYQQKPGKAPKLLIYDASSLESGVPSRFSGSGSGTDFTFTISSLQPEDIATYYCQQFNDYFTFGPGTKLEIK
notes: as for B1
As to B10, the “IC50, neutralisation” value with human FGF23 [2] came out at 0.5 µg/mL. In the experiment with human FGF23 [3], this molecule had an EC50 of 0.0233 µg/mL.

B11: ExA11 (antibody, V domains shown)
VH: QVQLVQSGAELKKPGASVKVSCKASGYTFTNHYMHWVRQAPGQGLEWMGIINPISGSTTYAQKFQGRVTMTRDTSSSTAYMDLSRLTSDDTAVYYCARDIVDAFDFWGQGTTVTVSS
VL: AIQLTQSPSSLSASVGDRVTITCRASQGISSALVWYQQKPGQAPRLLIYDASSLESGIPARFSGSGSGTDFTLTISSLEPEDFAVYYCQQFNDYFTFGQGTKLEIK
notes: as for B1
As for B11, the “IC50, neutralisation” value in the experiment with human FGF23 [2] stood at 0.411 µg/mL. In addition, the 50% effective concentration (EC50) with human FGF23 [3] was 0.0267 µg/mL.

B12: ExA35 (antibody, V domains shown)
VH: QVQLLESGAVLARPGTSVKISCKASGYTFTNHYMHWVKQRPGQGLEWIGIINPITGSSSNAQKFQGRVTITRDTSTSTVFMELSSLRSEDTAVYYCARDIVDAFDFWGQGTLVTVSS
VL: AIQLTQSPSSLSASVGDRVTITCRASQGISSALVWYQQKPGQAPRLLIYDASSLESGIPARFSGSGSGTDFTLTISSLEPEDFAVYYCQQFNDYFTFGQGTKLEIK
notes: as for B1
As to B12, the “IC50, neutralisation” value with human FGF23 [2] came to 0.355 µg/mL. In the experiment with human FGF23 [3], the concentration giving a half-maximal response (EC50) worked out at 0.0238 µg/mL.

B13: ExC50 (antibody, V domains shown)
VH: QVQLLESGAVLARPGTSVKISCKASGYSFTNHYMHWVKQRPGQGLEWIGIINPITGSSSNAQKFQGRVTITRDTSTSTVFMELSSLRSEDTAVYYCARDLVDAFDFWGQGTLVTVSS
VL: DIQLTQSPSSLSASVGDRVTITCRASQGISSALVWYQQKPGQAPRLLIYDASSLQSGIPARFSGSGSGTDFTLTISSLEPEDFAVYYCQQFNDYFTFGQGTKLEIK
notes: as for B1
With B13, in the experiment with human FGF23 [2], the “IC50, neutralisation” value was 0.199 µg/mL. In addition, in the experiment with human FGF23 [3], the EC50 came to 0.0204 µg/mL.

For orientation: EC50 means the concentration needed to bring the measured effect to its halfway point. Read a high EC50 as lower potency in that assay.
